experiment: soluble on expression in E. coli; label from the status in PepcDB or PDB records

| Sequence | soluble on expression in E. coli |
| --- | --- |
| MGEEKEIRIIVLEDGEHLESVIRKIEKGWIVRFKRGSSLLGKKVKVFTSICPGNSLEWSEGKDHLAVYCQVECKEAGSFRYWFKIEDSEERGSGYFLVMPELKINGKCLPLDGIACQTYLTKLLGPLSEWKERLEVAHQTGYNMIHLTPIHELGISNSSYSLSDHHSLIKTIQSQDQKFGFEDVQALVGDLERSWNILTVQDVVWNHAAKNATWLLEHPESAYNCLNSPHLRPAYVIDRVYHEFGKQIGEGVWEHRGVPPVVDNIHHVNAIEYLLRAEVLPKADLHEFYQVDLKAMVNLFEVFIKQSSGPTTNPLDGEDVEIEQDLECRRFGNTVDFERSARIFNRHRGDAKSEEERVEKCVRSFEEALNNKNLEAARESWEVILAGLAAVMGGITYERIADNGPKKGLVSPENPLTTDYFLHLEADLGWKSEEKFAYDPEKSKFLMAFNGWVMSSDPMKNFALKESQVYLRRELVCWGDSVKLNYGNKEADSPFLWQYMKEYTQQAARIFHGLRIDNAHGTPIHVAEKLLKTAREVRPDIYVFAELFTGSEHADNMFVNRLGISSLIREAQSAHDSHEQGRLVYRYGGDCVGAFKQKSARLAPKSIAHGLFLDQSHDNPSPIHTRSPFDILPTAAMLTMASCAVGSNRGYDELIRDHIHVVSEKRPYASWCRPDQVSRSQGIIEGRNLLNKLHTWLAEHGYSQVFVDQMNSDIVGITRHNPRTHETVVVVSHTSFSKNYIDWPGGLKHIPIGGVLENVIFEMKLKKVQEEWGTEDPDVLIGLKNYEMEIRENVNLDNGTMFKVHDGYIELTNFPTGSVVGFKIRPSDEATKAFNMIHNSITPEQSEFDSALSRLTYQSFPNLLFHCESEDYATIQQGGYDVPNFGKFVYCGLQGLVPVLEKIRDDNDLGHPLCQNLRDGTWICDYIVGRLAKFEKLGEVSEAIRKFFAPLDHVPYYLRPCYFELLVSYIYGKIRKEALKRMAPQISSSSALVRHLAISTLSFLGYIPGAGLAPIPTSLQIEDQYPSSLAAGLSHFAVGIWRNWGRDTFIALPGCLLSTGRFQEARQIILSFAGAIRHGLIPNLLAEGIGARYNCRDATWFWLVSIVKYVESAPNGVGILEDPVRRIYPNDDSVYGEGEVQQMLIETIYEALDKHFAGIDYRERSAGPQIDEQMRDEGFQVTAGVSRTTGFIYGGNRWNCGTWMDKMGSSERAGNKGEPATPRDGAAVELQGLAYRALKSLKNWKEQGVIQRSGVSDEWTWGFWAQKIRENFEKEFFVDKDSYAEFVNRREIIKDSVGSTLGFTDFQLRCNFGIALAVAPDLMDPKKAWKALDSAEVLLGPLGMKTLDPTDWAYNGYYNNDDDGTDKKTAKGWNYHQGPEWLFVAGYYLQARLRIGDILGGSEKQYAIRQVQERLGNAYKHIISSPWRSLPELTNADGEYCMQSCAAQAWSVGCLIEACVKLNTIEG | not soluble |
| MGFGNINFCAVDLGSHKITVAIGQLAENNSIKILGVSQKQSKGIKQGSVINLEIAMETLNAALDEAKSIAGVDVKEVTLGVSAPSISGFNSYGLAAVENGEVSIEDLAMAIKTAKAVPMSADTEMLHVLQRDYIVDGQAGVTEPIGMFAVRLESNVHIIVASSRLLQNVRKCVSNCGYSISNLVVEHLAASSATLTDNEKEMGVCLVNIGADSTSFSVFADGGICYTSSIKTGGASISSDISKVFRLPIEAAESLKLQYGYAASKYLKNPDEKIDIPNSLGNAKKRISLQDLSLVIEARVEEIFESLYRELDQHRLLEVISSGIVFTGGGAKLKGLARLAEDMFKLPVRVGGPIEVSGANEVVHNPSYATVVGLLKYAAENSDTSNQQKIEEDVMEIDENTGKSKKKIISSVKGWFSNNF | not soluble |
| MGFLERIKKLFSKEEEKQEESILSNPLERLKKGDIIEIDGETWEVTDVALYDYGASKEKEWEIRSASRRGFLSLEEGKIYFFEEIDPEELEPDPGEHFRKYGKPPEYVTYKGKRYRLKYAGKAKYIKNLESYPVTIWEFRSEDGEMIDLEIWDEYEIEAYKGRELQEWEIESILPR | not soluble |
| MGFLPDSWHFYIETLLVALLAYVVMRNRSKRQQEKLSKKLTERQKDELIADWTPEPLVPETPQDHPVLNPKYADGKMTKDVSIDGEKYLNMASTNFLSFIGVKRIEDRAKQTIFKYGVGSCGPRGFYGTVDVHLDLEKELAKFMGCEEAVLYSYGFATVSSAIPAYAKKGDVIFVDEGVNFAIQKGLQASRSRVEYFKHNDMEHLERLLLEQEQRDKKDPKKAKSVRRFIVVEGLYVNYADLCPLPKIIEFKWRFKVRVFIDESWSFGVIGKTGRGVTEHFNVPMEDVDMVMASLENALASTGGFCVGRSYVVGHQRLSGLGYCFSASLPPLLATAASEAISIIDEEPSRVQKVTEMAINGQKKLQDALSGSKFSLQGCPESPMKHIYYNGEDEEKQLDTFVETVFTKNHLLLTRARYLDKDELFKIRPSIRVMFQHDLTEEEIQRAVDAIRVVAHKF | not soluble |
| MGFLWKTAKLGIKVGLVAGAVKLSIDNDIWSTNNVKGSELYQKLKKYILPGTVVFPEQLPTVEDVQLKAGGKWNSAVDSVFTTIENVPSSVNTVANRLINNK | not soluble |
| MGGIPDITPYPLTYSLGGVIPLSSVLEMLWVEKYRPRSLDDIVDQKHVVERLKQFVKQRNMPHLLFAGPPGTGKTTAAHALAHDLFGENYRQYMLELNASDERGINVIREKVKEFARSRTPPEIPFKIVLLDEADNMTSDAQQALRRLMELYSSVTRFILIANYPSKIIDPIQSRCAFFRFQPLSKQDVIERLRYIAENEGVDYEEEALDAIYEISEGDMRKAINVLQAASYLGKVTVDAVYRVVGMAKPREVREMLATALKGDFTAARSLLRKIMIEYGMSGEDVARQIHRELFSTELKMPEELRVLAADYLGEVHYRLVEGSDDDIQLSAFLAWLTMMSRKLEV | soluble |
| MGGLSAQSTAATATMGGKNKQRTKGNLRPSNSGRAAELLAKEQGTVPGFIGFGTSQSDLGYVPAIQGAEEIDSLVDSDFRMVLRKLSKKDVTTKLKAMQEFGTMCTERDTETVKGVLPYWPRIFCKISLDHDRRVREATQQAFEKLILKVKKQLGPYLKSLMGYWLMAQCDTYTPAAFAAKDAFEAAFPPSKQPEAIAFCKDEITSVLQDHLIKETPDTLSDPQTVQRKKEKLNSTGLLEHHHHHH | not soluble |
| MGGSHHHHHHGMASALAPKQDPKPKFQEGERVLCFHGPLLYEAKCVKVAIKDKQVKYFIHYSGWNKNWDEWVPESRVLKYVDTNLQKQRELQKANQEQYAEGKMRGAAPGKKTSGLQQKNVEVKTKKNKQKTPGNGDGGSTSETPQPPRKKRARVDPTVENEETFMNRVEVKVKIPEELKPWLVDDWDLITRQKQLFYLPAKKNVDSILEDYANYKKSRGNTDNKEYAVNEVVAGIKEYFNVMLGTQLLYKFERPQYAEILADHPDAPMSQVYGAPHLLRLFVRIGAMLAYTPLDEKSLALLLNYLHDFLKYLAKNSATLFSASDYEVAPPEYHRKAV | not soluble |
| MGGSHHHHHHGMASALSQATKRKHVVKEVLGEHIVPSNQQQIVRVLRTPGNNLHEVETAQGQRFLVSMPSKYRKNIWIKRGDFLIVDPIEEGEKVKAEISFVLCKDHVRSLQKEGFWPEAFSEVAEKHNNRNRQTQPELPAEPQLSGEESSSEDDSDLFVNTNRRQYHESEEESEEEEAA | not soluble |
| MGHEAKHPIIIGITGNIGSGKSTVAALLRSWGYPVLDLDALAARARENKEEELKRLFPEAVVGGRLDRRALARLVFSDPERLKALEAVVHPEVRRLLMEELSRLEAPLVFLEIPLLFEKGWEGRLHGTLLVAAPLEERVRRVMARSGLSREEVLARERAQMPEEEKRKRATWVLENTGSLEDLERALKAVLAELTGGAKEGRG | soluble |
| MGHHHHHHGGHMSLITAEECRTYKEFVDLYQSYLYPLLGARLSRMYSPKNKVIIDMGTGPGYLSIQLAKRTNAHVHAVDINPAMHEIAQEEAKKSGVSSLISFDLEDVHHLSYADQYADFIVSYSCLHHWEDVVKGLKECYRVLAPGGKIVILDTFNPQGSHLEIMRKQIKEPEYFRFVREAFEESYSFEDIHQFVQDAGIPNYSLETFHFLPEDFIESLDELEDAPLWEQNDQSTDHEIESVTWMLTIEKEKEGALEGGS | soluble |
| MGHHHHHHGGHMSLSAYKTVVVGTDGSDSSMRAVDRAAQIAGADAKLIIASAYLPQHEDARAADILKDESYKVTGTAPIYEILHDAKERAHNAGAKNVEERPIVGAPVDALVNLADEEKADLLVVGNVGLSTIAGRLLGSVPANVSRRAKVDVLIVHTTEGGS | soluble |

— the DeepSol protein solubility set
